The text below walks through data of the Immune Epitope Database (IEDB).

For one experiment, the target named is HLA-A*02:01. As to the kind of experiment: IEDB peptide-MHC binding, purified MHC/direct/fluorescence; filed as Kd, often an IC50 or EC50 that approximates it; ≥ and ≤ were set here for values at or beyond the usual limits of such assays.
In the next experiment the target is HLA-A*02:06. Described as above.
A further experiment concerns the target HLA-A*02:11. The experiment is described as above.
The next experiment deals with HLA-A*03:01. Described as above.
The next experiment concerns the target HLA-A*24:03. The description is as above. Particulars: source organism: Yersinia pestis CA88-4125.
The next experiment addresses HLA-A*26:01. Described as above. Particulars: source organism: Yersinia pestis CA88-4125.
The target of the next experiment is HLA-A*29:02. Described as above. Particulars: source organism: Yersinia pestis CA88-4125.
In the next experiment the target is HLA-A*69:01. Described as above.
The target in a further experiment is HLA-B*18:01. The experiment is described as above. Particulars: source organism: Yersinia pestis CA88-4125.
Another experiment deals with HLA-B*27:03. The description is as above. Particulars: source organism: Yersinia pestis CA88-4125.
Another experiment addresses HLA-B*39:01. The description is as above. Particulars: source organism: Yersinia pestis CA88-4125.
Another experiment has as its target HLA-B*46:01. The description is as above.
The target of the next experiment is HLA-B*51:01. Described as above. Particulars: source organism: Yersinia pestis CA88-4125.
In a further experiment the target is HLA-B*57:01. Described as above. Particulars: source organism: Yersinia pestis CA88-4125.
Experiment [1] has as its target HLA-A*01:01. As to the kind of experiment: IEDB peptide-MHC binding, purified MHC/competitive/fluorescence; filed as Kd, often an IC50 or EC50 that approximates it; ≥ and ≤ were set here for values at or beyond the usual limits of such assays. Particulars: source organism: Yersinia pestis CO92.
A further experiment concerns the target HLA-A*11:01. The description is as above. Particulars: source organism: Yersinia pestis CO92.
For a further experiment, the target named is HLA-A*23:01. The description is as above. Particulars: source organism: Yersinia pestis CO92.
Another experiment has as its target HLA-A*30:01. The experiment is described as above. Particulars: source organism: Yersinia pestis CO92.
The next experiment deals with HLA-A*30:02. The experiment is described as above. Particulars: source organism: Yersinia pestis CO92.
The next experiment addresses HLA-A*66:01. The description is as above. Particulars: source organism: Yersinia pestis CO92.
In experiment [2] the target is HLA-B*07:02. Described as above. Particulars: source organism: Yersinia pestis CO92.
The target of experiment [3] is HLA-B*08:01. The experiment is described as above. Particulars: source organism: Yersinia pestis CO92.
The next experiment addresses HLA-B*14:02. Described as above. Particulars: source organism: Yersinia pestis CO92.
Experiment [4] has as its target HLA-B*27:05. The experiment is described as above. Particulars: source organism: Yersinia pestis CO92.
Experiment [5] deals with HLA-B*40:01. Described as above. Particulars: source organism: Yersinia pestis CO92.
In experiment [6] the target is HLA-B*44:02. The description is as above. Particulars: source organism: Yersinia pestis CO92.
For the next experiment, the target named is HLA-B*53:01. The description is as above. Particulars: source organism: Yersinia pestis CO92.
The target of experiment [7] is HLA-B*58:01. The description is as above. Particulars: source organism: Yersinia pestis CO92.
Experiment [8] addresses HLA-A*01:01. As to the kind of experiment: IEDB peptide-MHC binding, purified MHC/direct/fluorescence; filed as Kd, often an IC50 or EC50 that approximates it; ≥ and ≤ were set here for values at or beyond the usual limits of such assays. Particulars: source organism: Influenza A virus (A/turkey/Minnesota/1200/1980(H7N3)).
A further experiment addresses HLA-A*02:03. Described as above. Particulars: source organism: Influenza A virus H3N2.
A further experiment concerns the target HLA-A*02:12. The experiment is described as above. Particulars: source organism: Influenza A virus H3N2.
In another experiment the target is HLA-A*02:19. The experiment is described as above. Particulars: source organism: Influenza A virus H3N2.
The next experiment has as its target HLA-A*24:02. The experiment is described as above. Particulars: source organism: Influenza A virus (A/turkey/Minnesota/1200/1980(H7N3)).
Experiment [9] has as its target HLA-B*07:02. The experiment is described as above. Particulars: source organism: Influenza A virus (A/turkey/Minnesota/1200/1980(H7N3)).
Experiment [10] addresses HLA-B*08:01. The description is as above. Particulars: source organism: Influenza A virus (A/turkey/Minnesota/1200/1980(H7N3)).
For a further experiment, the target named is HLA-B*08:02. Described as above. Particulars: source organism: Influenza A virus H3N2.
A further experiment addresses HLA-B*15:01. Described as above. Particulars: source organism: Influenza A virus (A/turkey/Minnesota/1200/1980(H7N3)).
For experiment [11], the target named is HLA-B*27:05. Described as above. Particulars: source organism: Influenza A virus (A/turkey/Minnesota/1200/1980(H7N3)).
The target in experiment [12] is HLA-B*40:01. The experiment is described as above. Particulars: source organism: Influenza A virus (A/Puerto Rico/8/34/Mount Sinai(H1N1)).
Experiment [13] deals with HLA-B*44:02. The experiment is described as above. Particulars: source organism: Influenza A virus (A/turkey/Minnesota/1200/1980(H7N3)).
Experiment [14] concerns the target HLA-B*58:01. The experiment is described as above. Particulars: source organism: Influenza A virus (A/turkey/Minnesota/1200/1980(H7N3)).
Another experiment addresses HLA-A*02:16. The experiment is described as above. Particulars: source organism: Listeria monocytogenes serotype 4b str. H7858.
For a further experiment, the target named is HLA-A*02:50. Briefly: IEDB peptide-MHC binding, purified MHC/competitive/fluorescence; filed as Kd, often an IC50 or EC50 that approximates it; ≥ and ≤ were set here for values at or beyond the usual limits of such assays. Particulars: source organism: Listeria monocytogenes EGD-e.
Where [15] appears, read: source organism: Yersinia pestis CA88-4125.
The mark [16] stands for this setting: source organism: Influenza A virus H3N2.
[17] abbreviates: source organism: Influenza A virus (A/turkey/Minnesota/1200/1980(H7N3)).
The mark [18] stands for this setting: source organism: Listeria monocytogenes.

Regarding QQRPDLILV, the Kd in the experiment with HLA-A*02:01 (setting [15]) was 3.43 µM; with HLA-A*02:06 (setting [15]), 0.17 µM; in the experiment with HLA-A*02:11 (setting [15]), not below 20 µM; with HLA-A*03:01 (setting [15]), not below 20 µM; with HLA-A*24:03, not below 20 µM; with HLA-A*26:01 it was not below 20 µM. Also, the Kd with HLA-A*29:02 is 0.089 µM; with HLA-A*69:01 (setting [15]), not below 20 µM; in the experiment with HLA-B*18:01, not below 20 µM; in the experiment with HLA-B*27:03, not below 20 µM; with HLA-B*39:01, not below 20 µM; with HLA-B*46:01 (setting [15]) it was not below 20 µM. Besides, the Kd in the experiment with HLA-B*51:01 is not below 20 µM; with HLA-B*57:01, not below 20 µM; with HLA-A*01:01 [1] it was not below 5 µM; with HLA-A*11:01 it was not below 5 µM; with HLA-A*23:01 it was not below 5 µM; with HLA-A*30:01, not below 5 µM. In addition, the Kd with HLA-A*30:02 is not below 20 µM; in the experiment with HLA-A*66:01, not below 5 µM; with HLA-B*07:02 [2], not below 5 µM; with HLA-B*08:01 [3] it was not below 5 µM; with HLA-B*14:02, not below 5 µM; with HLA-B*27:05 [4], not below 5 µM. Also, the Kd with HLA-B*40:01 [5], with HLA-B*44:02 [6], with HLA-B*53:01 and in the experiment with HLA-B*58:01 [7] was not below 5 µM throughout.

VTTEVAFGL: the equilibrium dissociation constant (Kd) in the experiment with HLA-A*01:01 [8] is not below 20 µM; with HLA-A*02:01 (source organism: Influenza A virus (A/Puerto Rico/8/34/Mount Sinai(H1N1))), 0.069 µM; in the experiment with HLA-A*02:03, 0.517 µM; with HLA-A*02:06 (setting [16]), not above 0.001 µM; with HLA-A*02:11 (setting [16]) it was not above 0.001 µM; with HLA-A*02:12, 0.186 µM. Moreover, the Kd with HLA-A*02:19 was 0.656 µM; in the experiment with HLA-A*03:01 (setting [17]), not below 20 µM; with HLA-A*24:02, not below 20 µM; with HLA-A*69:01 (setting [17]), not below 20 µM; with HLA-B*07:02 [9] it was not below 20 µM; with HLA-B*08:01 [10] it was not below 20 µM. Further, the Kd was not below 20 µM in the experiment with HLA-B*08:02; not below 20 µM with HLA-B*15:01; not below 20 µM in the experiment with HLA-B*27:05 [11]; 15 µM with HLA-B*40:01 [12]; not below 20 µM with HLA-B*44:02 [13]; not below 20 µM in the experiment with HLA-B*46:01 (setting [17]). The sequence also yielded a Kd in the experiment with HLA-B*58:01 [14] of 0.494 µM.

With ALVSEVTEV, the Kd was 0.0797 µM in the experiment with HLA-A*02:01 (setting [18]), 0.002 µM in the experiment with HLA-A*02:16, 1.92 µM with HLA-A*69:01 (setting [18]) and not above 0.0001 µM with HLA-A*02:50.
